{"source": "paper PMC4683619", "biological_target": "TNFR1 on L929 cells (mouse (endogenous in L929)) (UniProt P25118)", "sequence (P25118 30-454)": "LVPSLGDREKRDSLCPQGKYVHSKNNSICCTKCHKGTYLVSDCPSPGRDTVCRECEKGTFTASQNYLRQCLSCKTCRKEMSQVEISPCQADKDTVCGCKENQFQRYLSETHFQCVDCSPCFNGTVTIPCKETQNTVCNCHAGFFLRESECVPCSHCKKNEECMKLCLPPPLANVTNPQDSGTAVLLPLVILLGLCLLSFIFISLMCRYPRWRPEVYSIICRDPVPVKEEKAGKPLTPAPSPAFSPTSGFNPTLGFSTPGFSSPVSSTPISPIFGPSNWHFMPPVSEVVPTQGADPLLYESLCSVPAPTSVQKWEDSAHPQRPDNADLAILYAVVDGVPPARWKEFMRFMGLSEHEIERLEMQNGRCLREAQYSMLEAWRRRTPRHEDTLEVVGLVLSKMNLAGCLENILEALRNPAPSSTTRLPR", "data": [{"substance": "PRINT PEG5K scTNF-α (N-terminal mono-PEGylated single-chain TNF-α) (ligand)", "values": [{"measurement": "cytotoxicity against L929 cells (WST-1, with actinomycin D, 24 h), EC50", "result": 0.00058, "unit": "ng/mL"}]}, {"substance": "PRINT PEG20K scTNF-α (N-terminal mono-PEGylated single-chain TNF-α) (ligand)", "values": [{"measurement": "cytotoxicity against L929 cells (WST-1, with actinomycin D, 24 h), EC50", "result": 0.00062, "unit": "ng/mL"}]}, {"substance": "citraconylated scTNF-α (ligand)", "values": [{"measurement": "cytotoxicity against L929 cells (WST-1, with actinomycin D, 24 h), EC50", "result": 0.0076, "unit": "ng/mL"}]}, {"substance": "randomly PEGylated scTNF-α (directly PEGylated PEG5K scTNF-α) (ligand)", "values": [{"measurement": "cytotoxicity against L929 cells (WST-1, with actinomycin D, 24 h), EC50", "result": 0.0046, "unit": "ng/mL"}]}, {"substance": "recombinant single-chain TNF-α, His tag cleaved, unmodified (ligand)", "values": [{"measurement": "cytotoxicity against L929 cells (WST-1, with actinomycin D, 24 h), EC50", "result": 0.00035, "unit": "ng/mL"}]}]}
